From PMC3197615

Assays:
[1] = target: rat Ephrin A4 on transduced WOP cells (rat)
[2] = target: human Ephrin A4 on transduced WOP cells (human) (UniProt P52798)
[3] = target: mouse Ephrin A4 on transduced WOP cells (mouse) (UniProt O08542)
Chain of UniProt O08542 (O08542 26-175): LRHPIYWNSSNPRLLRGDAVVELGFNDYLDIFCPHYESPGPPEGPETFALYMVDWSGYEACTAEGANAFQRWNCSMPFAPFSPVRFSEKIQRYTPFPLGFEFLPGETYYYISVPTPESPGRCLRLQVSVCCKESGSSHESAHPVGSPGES

Chain of UniProt P52798 (P52798 26-170): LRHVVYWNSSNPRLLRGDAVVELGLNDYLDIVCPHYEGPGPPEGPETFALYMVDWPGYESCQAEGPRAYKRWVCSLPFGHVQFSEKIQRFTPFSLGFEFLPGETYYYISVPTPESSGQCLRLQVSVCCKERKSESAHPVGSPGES

IAPE Env (IAPE D2*) on transfected 293T cells (natural protein)
fold increase of the titre of IAPE Env pseudotypes over no-Env pseudotypes on transduced WOP cells (fold increase) [1]: 16 | fold increase of the titre of IAPE Env pseudotypes over no-Env pseudotypes on transduced WOP cells (fold increase) [2]: 231 | fold increase of the titre of IAPE Env pseudotypes over no-Env pseudotypes on transduced WOP cells (fold increase) [3]: 16
